This note sets out measurements from US20100279930A1 (published 2010).

Test [1] deals with T1, human Y4 receptor (human, UniProt P50391 1-375). Kind of test: 125I-PP displacement.
Test [2] addresses T1, human Y4 receptor. Kind of test: 125I-PP displacement. The source holds these as a separate data set.

Where two headings read alike, the source gives them in different places.

T1 sequence (P50391 whole entry): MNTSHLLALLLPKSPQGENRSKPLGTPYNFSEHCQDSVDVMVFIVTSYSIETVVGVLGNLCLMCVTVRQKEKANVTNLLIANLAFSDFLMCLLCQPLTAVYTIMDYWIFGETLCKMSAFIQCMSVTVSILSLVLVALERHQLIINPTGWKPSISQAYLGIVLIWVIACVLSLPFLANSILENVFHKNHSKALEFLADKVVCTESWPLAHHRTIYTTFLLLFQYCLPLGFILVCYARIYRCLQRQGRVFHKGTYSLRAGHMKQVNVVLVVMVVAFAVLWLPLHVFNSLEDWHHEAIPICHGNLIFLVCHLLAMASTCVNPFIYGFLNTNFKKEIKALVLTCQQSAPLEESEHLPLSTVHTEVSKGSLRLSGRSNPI

With APLEPVYPGDDATPQQMAQYYAELRHYLNLVTRPRY [4055248], the IC50 with human Y4 receptor [1] came out at 0.38 nM.
As to AAPLEPVYPGDDATPQQMAQYAAELRKYINMLTRPRY [6814], the IC50 with human Y4 receptor [2] was 0.22 nM.
On the same count and under the same terms, the result for AAPLEPFYPGDDATPQQMAQYAAALRRYINMLTRPRY [6665] reads 0.12 nM.
In the test with human Y4 receptor [1], APLEPVYPGDNATPEQNLAQYAADLRRYINMLTRPRY [4055398] came in with an IC50 of 0.15 nM.
For the molecule AAPLEPVYPGDNATPEELNRYYASLRRYINMLTRPRY [6671], the IC50 with human Y4 receptor [2] stood at 0.11 nM.
Regarding APLEPVYPGDNATPEQMNRYYASLRHYLNLVTRPRY [4054985], in the test with human Y4 receptor [1], the IC50 turned out to be 0.17 nM. That is a sub-nanomolar value.
Consider APLEPVYPGDNATPEQMAQYYASLQHYLNLVTRPRY [4055246], for which, in the test with human Y4 receptor [1], the IC50 turned out to be 0.46 nM.
HAPLEPVYPGDNATPEELVKYYSALRRYINMLTRPRY [6860] displayed an IC50 in the test with human Y4 receptor [2] of 0.11 nM. This lies in the sub-nanomolar range.
Take PAPLEPKYPGDDATPQQMARYAAELRRYINKLTRPRY [7255]: the IC50 with human Y4 receptor [1] worked out at 0.091 nM.
Same read-out and setting: the result for PAPLEPEYPGDDATPQQMARYAAELRRYINFLTRPRY [7257] reads 0.142 nM.
In the test with human Y4 receptor [1], PAPLEPEYPGDDATPQQMARYAAELRRYINILTRPRY [7256] had an IC50 of 0.132 nM.
In the test with human Y4 receptor [2], AAPLEPFYPGDDATPQQMAQYAAELRRYINMLTRPRY [6818] registered an IC50 of 0.15 nM.
Molecule PAPLEPTYPGDDATPQQMARYAAELRRYINKLTRPRY [7258] gave an IC50 with human Y4 receptor [1] of 0.068 nM.
The same measure, in the same setting: to PAPLEPEYPGDNATPEQMARYAAELRRYINKLTRPRY [7254] belongs 0.109 nM; to PAPLEPTYPGDNATPEQMAKYAAELRRYINKLTRPRY [7252], 0.082 nM.
Still for that read-out and setting: to KPLEPVYPGDDATPQQMAQYAAELRRYINMLTRPRY [4055197] belongs 0.62 nM.
Molecule APLEPFYPGDDATPQQMAQYAAELRRYINMLTRPRY [6817] yielded an IC50 in the test with human Y4 receptor [2] of 0.2 nM.
As for KPLEPVYPGDDATPQQMAQYAAELRRYINMLTRPRY [4055196], in the test with human Y4 receptor [1], the IC50 was 0.33 nM.
Still for that read-out and setting: the result for PLEPFYPGDDATPQQMAQYAAALRRYINMLTRPRY [4055287] reads 0.5 nM.
In the test with human Y4 receptor [2], PLEPVYPGDDATPQQMAQYAAALRRYINMLTRPRY [6666] registered an IC50 of 0.11 nM.
Turning to PAPLEPTYPGDNATPEQMAKYAAALRRYINMLTRPRY [7250], in the test with human Y4 receptor [1], the IC50 was found to be 0.099 nM.
CAPLEPVYPGDNATPEQMAQYAADLRRYINMLTRPRY [6836] had an IC50 with human Y4 receptor [2] of 0.69 nM.
Still for that read-out and setting: to APLEPVYPGDNATPEELVKYFVGLRRYINMLTRPRY [6850] belongs 0.17 nM; to APLEPVYPGDNATPEELVKYFSALRRYINMLTRPRY [6848], 0.12 nM.
Still for that read-out and setting: to APLEPFYPGDNATPEELVKYYSALRRYINMLTRPRY [6843] belongs 0.17 nM.
The molecule APLEPEYPGDDATPEQMAEYAADLRRYINMLTRPRY [4055407] had an IC50 in the test with human Y4 receptor [1] of 0.29 nM.
For the molecule APLEPVYPGDNATPEQMAQYAADLRRYINMLTRPMY [4054976], the IC50 in the test with human Y4 receptor [1] is 1.4 nM.
APLEPVYPGDNATPEQMAKYAADLRRYINMLTRPRY [compound of SEQ ID NO:224 (Lys 19, code 4055291)]: in the test with human Y4 receptor [1], the IC50 was found to be 0.32 nM.
On the same count and under the same terms, the result for APLEPVYPGDNATPEQMAQYAADLRRYINLLTRPRY [4055399] reads 0.28 nM.
The same measure, in the same setting: the result for APLEPVYPGDNATPEQMAQYAADLRRYINMLTRPHY [4054987] reads 0.72 nM; that for APLEPVYPGDNATPEQMAQYAADLRRYINMLTRPQY [4054977], 1.8 nM; that for APLEPVYPGDNATPEQMARYAAALRRYINMLTRPRY [7242], 0.14 nM.
Still for that read-out and setting: the result for APLEPVYPGDNATPEQMAQYAADLMRYINMLTRPRY [4054981] reads 0.38 nM.
The molecule APLEPVYPGDNATPEQMAQYAADLRRYIDMLTRPRY [4055403] yielded an IC50 in the test with human Y4 receptor [1] of 0.5 nM.
Still for that read-out and setting: to APPEPVYPGDDATPEQMAEYVADLRRYINMLTRPRY [4055405] belongs 0.24 nM.
For the molecule APLEPVYPGDNATPEQRAQYAADLRRYINTLTRPRY [6807], the IC50 with human Y4 receptor [2] came out at 0.19 nM.
On the same count and under the same terms, to AAPLEPVYPGDNATPEQLAQYAADLRRYINLLTRPRY [6657] belongs 0.25 nM.
Still for that read-out and setting: the result for AAPLEPVYPGDNATPEQMAQYAADLRRYINTLTRPRY [6658] reads 0.16 nM; that for KPLEPVYPGDNATPEELNRYYASLRRYINMLTRPRY [compound of SEQ ID NO:73 (code 6675)], 0.089 nM.
Same read-out and setting: to APLEPFYPGDNATPEELVKYYASLRRYINMLTRPRY [6846] belongs 0.15 nM.

The term IC50 denotes the concentration at which inhibition is half-maximal. A lower IC50 goes with higher potency.
